{
  "source": "paper PMC5640846",
  "key": {"[1]": {"target": "HTNV Gn ectodomain (Hantaan virus glycoprotein Gn, residues 18 to 371) (Hantaan virus (HTNV))", "experiment": "crystal structure"}, "[2]": {"target": "HTNV Gn ectodomain (Hantaan virus glycoprotein Gn, residues 18 to 371) (Hantaan virus (HTNV))", "experiment": "AUC"}},
  "note": "Where “and” joins values, the source holds several entries; their conditions need not be identical. Equal values may be shown once.",
  "data": [
    {"substance": "HTNV Gn ectodomain (Hantaan virus glycoprotein Gn, residues 18 to 371) (domain or fragment)", "values": [
      {"measurement": "stoichiometry N", "setting": "[1]", "value": 4},
      {"measurement": "stoichiometry N", "setting": "[2]", "value": "2 and 3 and 4"}
    ]}
  ]
}
